The values below come from patent publication US20240368289A1 (LAEKNA THERAPEUTICS SHANGHAI, published 2024).

First the molecules themselves.
B1: IgG NGS-1 (CDR shuffling) (antibody, V domains shown)
VH: QVQLVQSGAEVKKPGSSVKVSCKASGFQFRTSLISWVRQAPGQGLEWMGGLIPIFGTANYAQKFQGRVTITADESTSTAYMELSSLRSEDTAVYYCVKDLTWTNLGLDIWGQGTMVTVSS
VL: EIVMTQSPSSLSASVGDTVTITCRASQGVSRWLAWYQQKPGKAPRLLIYSAASSLYSGVPSRFSGSGSGTHFTLTISSLQPEDFATYFCQQSYSTPFTFGPGTKLEIK
notes: IgG: human IgG1 / kappa from pFUSE vectors, made in 293F cells
B2: hit 21341 (LA01) (IgG) (antibody, V domains shown)
VH: B1 VH with F27P, Q28R, R30Q, T31D, S32L, L33S, L51I, F55Y
VL: EIVMTQSPSSLSASVGDTVTITCRASQGVSRWLAWYQQKPGKAPRLLIYSARALHSGVPSRFSGSGSGTHFTLTISSLQPEDFATYFCQQSYSTPFTFGPGTKLEIK
notes: IgG: human IgG1 / kappa from pFUSE vectors, made in 293F cells; also called ACVR2A Ab LA01
B3: IgG 3352 (CDR shuffling) (antibody, V domains shown)
VH: B1 VH
VL: B2 VL with V29P, S50A, R52Q, A53G, H55S
notes: as for B1
B4: hit 21343 (IgG) (antibody, V domains shown)
VH: B1 VH with F27P, Q28R, R30Q, T31D, S32L, L33S, L51I, F55Y
VL: B2 VL with S50N, A53S, H55F
notes: as for B1
B5: hit 21366 (IgG) (antibody, V domains shown)
VH: B1 VH with F27P, Q28R, R30Q, T31D, S32L, L33S, L51I, F55Y
VL: B2 VL with S50W, R52A, A53H, H55Q
notes: as for B1
B6: hit 21155 (IgG) (antibody, V domains shown)
VH: B1 VH
VL: B2 VL with S50G, R52S, A53P, H55S
notes: as for B1
B7: IgG 6401 (CDR shuffling) (antibody, V domains shown)
VH: B1 VH with F27P, Q28R, R30Q, T31D, S32L, L33S, L51I, F55Y
VL: B2 VL with V29P
notes: as for B1
B8: hit 21169 (IgG) (antibody, V domains shown)
VH: B1 VH
VL: B2 VL with S50A, R52Q, A53G, H55S
notes: as for B1
B9: hit 275 (IgG) (antibody, V domains shown)
VH: B1 VH
VL: B2 VL with V29P, S50A, R52S, A53S
notes: as for B1
B10: clone F (Fab) (Fab, V domains shown)
VH: B1 VH with F27R, Q28E, R30E, T31S, S32L, L33F
VL: B2 VL with G28S, V29I, S30G, S50A, R52S, A53S, Q90E, T94N, F96Y
notes: Fab made in E. coli TG1 and purified on Ni-NTA
B11: clone A (Fab) (Fab, V domains shown)
VH: B1 VH with F27G, R30Y, T31H, L33R, L51I, F55Y
VL: B2 VL with S50A, R52S, A53S
notes: as for B10
B12: hit J (IgG) (antibody, V domains shown)
VH: B1 VH with F27P, Q28R, R30Q, T31D, S32L, L33S, L51I, F55Y
VL: B2 VL with S50A, R52S, A53S
notes: IgG: VH and VL cloned into pFUSEss-CHIg-hG1 (human IgG1 heavy) and pFUSE2ss-CLIg-hk (human kappa), made in 293F cells; also called parental clone "J"
B13: 366 (antibody, V domains shown)
VH: B1 VH
VL: B2 VL with V29A, R31Q, A34K, S50A, R52S, A53S

Positions count from the first letter of the chain named.

Sequence of ACVR2A on HEK293T-B1 cells (ACVR2B knockout stable cell line) (P27037 20-513): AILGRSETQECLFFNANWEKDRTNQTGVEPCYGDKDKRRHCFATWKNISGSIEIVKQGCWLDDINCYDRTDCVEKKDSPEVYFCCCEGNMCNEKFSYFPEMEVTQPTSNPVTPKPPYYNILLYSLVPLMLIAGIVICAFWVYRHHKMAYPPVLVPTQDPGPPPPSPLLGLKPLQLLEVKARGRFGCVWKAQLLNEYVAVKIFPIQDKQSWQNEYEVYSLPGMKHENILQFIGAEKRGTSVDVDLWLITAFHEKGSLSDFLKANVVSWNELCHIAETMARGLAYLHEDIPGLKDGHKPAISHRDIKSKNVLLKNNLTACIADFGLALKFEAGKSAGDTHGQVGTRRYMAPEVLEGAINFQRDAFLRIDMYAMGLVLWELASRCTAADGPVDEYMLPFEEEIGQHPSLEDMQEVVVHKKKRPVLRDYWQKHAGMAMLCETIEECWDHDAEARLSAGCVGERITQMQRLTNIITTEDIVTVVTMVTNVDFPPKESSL
T1 sequence (P27037 20-135): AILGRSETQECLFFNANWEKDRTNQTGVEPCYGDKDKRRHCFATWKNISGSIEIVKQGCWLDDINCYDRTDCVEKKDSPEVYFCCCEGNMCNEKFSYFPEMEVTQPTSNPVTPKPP
T2 sequence (P27037 20-135 limits assumed): as the sequence (P27037 20-135) above

One assay has as its target T1, recombinant protein comprising the human ACVR2A extracellular domain (ECD) fused to the human IgG1 Fc region (human, UniProt P27037 20-135).
T1 construct: extracellular domain; also called ACVR2A-Fc; ACVR2A-FC; not shown: human IgG1 Fc region
The assay can be described thus: SPR, Biacore; format and antigen construct not given. Background: Surface plasmon resonance follows binding to a sensor surface in real time, without labels.
In general, Kd refers to the constant that tells how readily two partners part at equilibrium. Usually koff stands for a measure of how fast the partners let go of each other. In general, kon refers to the second-order rate constant of association. With B1, the Kd was found to be 0.638 nM, the off-rate constant (koff) is 0.000118 s⁻¹ and the on-rate constant (kon) was 185000 M⁻¹ s⁻¹.

As for B2, the Kd amounted to 0.172 nM, the koff came out at 5.44e-05 s⁻¹ and the association rate constant (kon) stood at 316000 M⁻¹ s⁻¹.

As to B3, the Kd turned out to be 0.584 nM, the dissociation rate constant (koff) came to 9.41e-05 s⁻¹ and the kon is 161000 M⁻¹ s⁻¹.

Take B4: the dissociation constant Kd amounted to 0.43 nM, the koff came out at 4.51e-05 s⁻¹ and the kon was 105000 M⁻¹ s⁻¹.

Consider B5, for which the equilibrium dissociation constant (Kd) is 0.153 nM, the off-rate (koff) was 7.91e-06 s⁻¹ and the association rate constant (kon) came out at 51600 M⁻¹ s⁻¹.

In the case of B6, the dissociation constant Kd came to 0.211 nM, the koff was 8.07e-05 s⁻¹ and the kon came to 382000 M⁻¹ s⁻¹.

As to B7, the Kd amounted to 0.865 nM, the koff was determined as 0.000135 s⁻¹ and the kon was 156000 M⁻¹ s⁻¹.

On to B8, for which the Kd amounted to 0.663 nM, the off-rate (koff) was found to be 0.000238 s⁻¹ and the kon was 359000 M⁻¹ s⁻¹.

Regarding B9, the equilibrium dissociation constant (Kd) came out at 0.872 nM, the koff is 0.000319 s⁻¹ and the association rate constant (kon) came out at 366000 M⁻¹ s⁻¹.

For another assay, the target named is T1, recombinant protein comprising the …. The assay can be described thus: SPR, Biacore 3000 (1st test); ACVR2A-Fc captured by anti-human Fc, Fab injected. From the text:
(§1) 2.2 Surface Plasmon resonance (SPR) measurements and affinity analysis by anti-human Fc capture format. After affinity panning, output-3 (03) of CDRH1 library were screened for binding ability by Fab ELISA and followed by NGS DNA sequencing. Based on binding Elisa and sequence abundance from NGS data, 11 clones were select for SPR analysis. Approximately 100-800 resonance units (RU) of antigen ACVR2A, was captured by anti-human Fc immobilized on a channel of a CM5 chip with an activated amine group. After immobilization, Fab antibodies were injected into the channels at 25° C. in HBS-EP buffer, with a flow rate of 30 μL/min, 1 min. When the data collection was finished in each cycle, the sensor surface was regenerated using 80 mM NaOH with a flow rate of 30 μL/min, 15 sec and reused chip in next cycle. After subtraction of reference surface and buffer injection, curve was locally fitted with BIA evaluation version 4.1 using a 1:1 Langmuir binding mode.
(§2) The affinity of selected 11 anti-ACVR2A monoclonal antibody clones were determined on Biacore®3000 and Biacore®8000 as shown in Table 4 below.
As for B10, the Kd amounted to 11.8 nM, the koff was 0.000288 s⁻¹ and the kon was determined as 24400 M⁻¹ s⁻¹.

As for B11, the dissociation constant Kd turned out to be 5.29 nM and the koff came out at 0.00227 s⁻¹.

Another assay has the same target. The assay is described as follows: SPR, Biacore 8000 (2nd test); ACVR2A-Fc captured by anti-human Fc, Fab injected.
From the text: as §1, §2
As to B10, the dissociation constant (Kd) came to 1.47 nM, the koff came to 0.000331 s⁻¹ and the on-rate constant (kon) amounted to 225000 M⁻¹ s⁻¹.

For B11, the Kd came to 5.35 nM, the koff turned out to be 0.00257 s⁻¹ and the kon is 481000 M⁻¹ s⁻¹.

Another assay concerns the target T2, ACVR2A mouse Fc fusion protein (mouse, UniProt P27037 20-135 (human entry), limits assumed).
T2 construct: not shown: mouse Fc
The assay is described as follows: Activin A competitive ELISA; ACVR2A mouse Fc coated, antibody titrated, competitor activin A. On the procedure: (§3) 2.3 Activin A Competitive ELISA. To select ACVR2A hits that could block the interaction between ACVR2A and its ligand Activin A, a competitive ELISA assay was set up. 30 μL 4.17 nM ACVR2A mouse Fc fusion protein was coated in 384-well HB plate at 4° C. overnight following blocking with 5% BSA. Anti-ACVR2A Fab fragment or antibodies with different concentrations were added to the plate and incubated on an orbital shaker at room temperature for 1 hours to allow binding of the antibodies. […] After 5 times washing with TBST, 30 μl of 20 nM goat anti-activin A polyclonal antibody (Abcam, ab7153) in blocking buffer was added into plate and incubated at room temperature for 1 hour. Last, 30 μl of anti-goat IgG-HRP (Beyotime, A0181) in blocking buffer (1:500 dilution) was added to plate for another 30 min incubation following washing step. Luminescence signal was collected on Tecan infinite M1000 after adding 30 μl ECL substrate.
For orientation: ELISA stands for enzyme-linked immunosorbent assay.
As usually defined, the IC50 is the midpoint of a concentration-inhibition curve. As to B12, the half-inhibitory concentration (IC50) is 5.04 nM.

With B1, the IC50 amounted to 1.86 nM.

For the molecule B2, the concentration for half-maximal inhibition (IC50) worked out at 4.83 nM.

Consider B3, for which the half-maximal inhibitory concentration (IC50) was determined as 2.07 nM.

B4 yielded an IC50 of 4.74 nM.

On to B5, for which the IC50 was found to be 4.15 nM.

B6 displayed a half-maximal inhibitory concentration (IC50) of 5.13 nM.

With B7, the concentration for half-maximal inhibition (IC50) turned out to be 1.95 nM.

B8 registered a half-inhibitory concentration (IC50) of 5.3 nM.

Turning to B9, the IC50 came out at 6.04 nM.

The target of a further assay is T1, recombinant protein comprising the …. The assay can be described thus: SPR, Biacore 3000 (1st test); ACVR2A-Fc captured by anti-human Fc, Fab injected; 1st test (Biacore 3000).
From the text: as §1, §2
As to B11, the association rate constant (kon) is 429000 M⁻¹ s⁻¹.

Another assay has as its target ACVR2A on HEK293T-B1 cells (ACVR2B knockout stable cell line) (UniProt P27037 20-513). The assay can be described thus: cell-based or functional assay.
For B12, the “IC50 (M), HEK293T-B1 CAGA-Luc, Activin A” value turned out to be 5.12e-09 M and the “IC50 (M), HEK293T-B1 CAGA-Luc, GDF8” value was 2.06e-09 M.

Consider B1, for which the “IC50 (M), HEK293T-B1 CAGA-Luc, Activin A” value is 3.28e-09 M and the “IC50 (M), HEK293T-B1 CAGA-Luc, GDF8” value is 2.42e-10 M.

B2: the “IC50 (M), HEK293T-B1 CAGA-Luc, Activin A” value was 6.24e-09 M and the “IC50 (M), HEK293T-B1 CAGA-Luc, GDF8” value is 1.6e-09 M.

Turning to B3, the “IC50 (M), HEK293T-B1 CAGA-Luc, Activin A” value was found to be 2.28e-09 M and the “IC50 (M), HEK293T-B1 CAGA-Luc, GDF8” value is 3.51e-10 M.

With B4, the “IC50 (M), HEK293T-B1 CAGA-Luc, Activin A” value is 9.07e-09 M and the “IC50 (M), HEK293T-B1 CAGA-Luc, GDF8” value was found to be 1.64e-09 M.

As for B5, the “IC50 (M), HEK293T-B1 CAGA-Luc, Activin A” value turned out to be 3.64e-09 M and the “IC50 (M), HEK293T-B1 CAGA-Luc, GDF8” value was determined as 1.65e-09 M.

On to B6, for which the “IC50 (M), HEK293T-B1 CAGA-Luc, Activin A” value came out at 1.78e-09 M and the “IC50 (M), HEK293T-B1 CAGA-Luc, GDF8” value came to 6.51e-10 M.

Consider B7, for which the “IC50 (M), HEK293T-B1 CAGA-Luc, Activin A” value is 1.93e-09 M and the “IC50 (M), HEK293T-B1 CAGA-Luc, GDF8” value was 2.16e-09 M.

On to B8, for which the “IC50 (M), HEK293T-B1 CAGA-Luc, Activin A” value is 2.66e-09 M and the “IC50 (M), HEK293T-B1 CAGA-Luc, GDF8” value was 4.99e-10 M.

In the case of B9, the “IC50 (M), HEK293T-B1 CAGA-Luc, Activin A” value was 4.91e-09 M and the “IC50 (M), HEK293T-B1 CAGA-Luc, GDF8” value stood at 8.81e-10 M.

The target of a further assay is T2, ACVR2A mouse Fc fusion protein. The assay can be described thus: Activin A competitive ELISA: ACVR2A mouse Fc fusion coated, IgG titrated, then 16.7 nM Activin A added; bound Activin A detected (luminescence). The procedure:
as §3
On to B13, for which the “IC50 (read off the curve)” value is ~9 nM.
